Assay results reported in the supplement of paper PMC9170038.

System: MS2 coat protein
Assay: apparent KD of MS2 coat protein; designed switch direction (-1 OFF switch, 1 ON switch): -1; higher = weaker reporter binding
Method in brief: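 Each step of the titration lasted 0.8–1.5 h at the lowest concentration and 10–20 min at the highest. The protein, SNAP-549-labelled MS2 coat protein, went from 0.7 or 1.5 nM doubling to 3 µM over RNA switches transcribed on Illumina chips by stalled E. coli RNA polymerase. Normalised cluster fluorescence was curve-fitted, and the per-design median over clusters is given as apparent KD.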

[1] = input ligand: microRNA oligo, concentration not stated
[2] = Eterna round: R95, input ligand: microRNA oligo, concentration not stated

| Sequence | apparent KD of MS2 coat protein (input ligand: FMN 200 uM) [nM] | apparent KD of MS2 coat protein (input ligand: none) [nM] | apparent KD of MS2 coat protein [1] [nM] | apparent KD of MS2 coat protein (Eterna round: R95, input ligand: FMN 200 uM) [nM] | apparent KD of MS2 coat protein [2] [nM] | apparent KD of MS2 coat protein (Eterna round: R95, input ligand: none) [nM] |
| --- | --- | --- | --- | --- | --- | --- |
| CUCACGCUCGAGGAUAUCGCACAAAACAAUCAACGAGAAGGCGAGACAUGAGGAUCACCCAUGUGUGGUCAAGA [Ceceed] (Eterna round: R97, puzzle: Exclusion 6) | 80.9 | 590 | – | – | – | – |
| CUCAUGCCUGAGGAUAUGCUGUACAAAAGUACUGCAGAAGGUGGAACAUGAGGAUCACCCAUGUGGCGAAAGCC [Omei Ex G4] (Eterna round: R97, puzzle: Exclusion 6) | 253 | 66.1 | – | – | – | – |
| CUCAUUCGAGGAUAUGCAGAAUGGGUCCAAUCAUAAGACAUACAUGAGGAUCACCCAUGUAGAAGGCGGCCAUC [Eternabot (L1) Solution 59] (Eterna round: R97, puzzle: Exclusion 2) | 26 | 25.6 | – | – | – | – |
| CUCCGGCGUGUAGGAUAUGGAUCCGAUUAGGAUCCAGAAGGACAUGAGGAUCACCCAUGUACAUGUAAACAGUCAUCACCGGAC [salish99_ExNG1_r04_204] (Eterna round: R96, puzzle: Exclusion NG 1) | 155 | 18.7 | 10.4 | – | – | – |
| CUCCGGCGUGUAGGAUAUGGAUCCGAUUAGGAUCCAGAAGGACAUGAGGAUCACCCAUGUACAUGUAAACGGUCGUCACCGGGC [salish99_ExNG1_r04_207] (Eterna round: R96, puzzle: Exclusion NG 1) | 134 | 61.3 | 26.2 | – | – | – |
| CUCCUCAUGACGCCUAAACACAUGAGGAUCACCCAUGUACAGGCUUUUUGUCGUCUUAUAAUAAAACCGAGGAUACG [Orlaorusti] (Eterna round: R96, puzzle: Sensor v3, turn-off variant 1) | 17.8 | 23.2 | 52.2 | – | – | – |
| CUCCUCAUGACGCCUAAACACAUGAGGAUCACCCAUGUACAGGCUUUUUGUCGUCUUAUAAUAAAACCGAGGAUACG [Orlaorusti] (puzzle: Sensor v3, turn-off variant 1) | – | – | – | 20.2 | 116 | 23.2 |
| CUCGUGCAGCAAAGCUGUACGAGUACAUGAGGAUCACCCAUGUAGGAUAUGGUACGCAAAGCGUGCCAGAAGGACGUGCGUUAG [Mat - Exclusion NG 3 - Mod of JL - D94] (Eterna round: R96, puzzle: Exclusion NG 3) | 92.5 | 49.7 | 19.5 | – | – | – |
| CUCUAGUCAGGAUAUUAGUUGCCACCUGGACACAGGCGGCAUGAGAAGGGACUUGAGGAUCACCCAAGUAAAAG [Quaesbe] (Eterna round: R97, puzzle: Exclusion 4) | 384 | 758 | – | – | – | – |
| CUCUCGCGAGGAUAUGAUUUAAGUAACAUGAGGAUCACCCAUGUUUUUCCGUUGUUAUGUUCAGAAGGCGCGUGAU [JR_E5_Sub022] (puzzle: Exclusion 5) | – | – | – | – | 38.8 | – |
| CUGAACCCGGUAGGAUAUAUUGUGGGCAAGCAUGGAACAACAUGAGGAUCACCCAUGUAAUUUAGGUAGAAGGGCCAAAAGAUU [Excl-NG2-LRO08] (Eterna round: R96, puzzle: Exclusion NG 2) | 56.8 | 55.3 | 52.7 | – | – | – |
| CUGAGCUGACGGAGAUCCAACAUGAGGAUCACCCAUGUCUCAAAAGCUUUUUGCUCGUCUUAUCCUCCUCAGUUCAC [Mat - Sensor, turn-off var - Eli Mod - D55] (Eterna round: R97, puzzle: Sensor, turn-off variant 1) | 26.5 | 22.6 | – | – | – | – |
